Source: patent US20220119534A1 (DRAGONFLY THERAPEUTICS, published 2022)
Residue numbers refer to the chain shown, from its start. Numbers in names are those of the source. Where “and” joins values, the source holds several entries; their conditions need not be identical. Equal entries are not always repeated.

Tests used:
Human CLEC12A-His [1] = target: T1, Human CLEC12A-His (human, UniProt Q5QGZ9 65-265); experiment: cell-based or functional assay
T1 sequence: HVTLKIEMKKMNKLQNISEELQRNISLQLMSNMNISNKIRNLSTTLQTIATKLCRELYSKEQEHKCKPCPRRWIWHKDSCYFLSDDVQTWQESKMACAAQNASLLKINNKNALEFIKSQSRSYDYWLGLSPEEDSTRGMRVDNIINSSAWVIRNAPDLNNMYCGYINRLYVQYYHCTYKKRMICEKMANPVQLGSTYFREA

Human CLEC12A-His [2] = target: T1, Human CLEC12A-His; experiment: SPR Biacore 8K 37 C; TriNKET captured on anti-hFc chip, hCLEC12A-His as analyte; 1:1 fit; control, n=4
[3] = target: T2, Human CD16a V158 (FcγRIIIa V158) (human, UniProt P08637 17-208, biotinylated (site not stated)); experiment: SPR; biotinylated CD16a V158 captured on SA chip, TriNKET as analyte; 1:1 kinetic fit; control sample, n=3
T2 construct: V158 is the allele name in mature numbering; also called hCD16aV; hCD16a V158
T2 sequence (P08637 17-208 F176V limits assumed): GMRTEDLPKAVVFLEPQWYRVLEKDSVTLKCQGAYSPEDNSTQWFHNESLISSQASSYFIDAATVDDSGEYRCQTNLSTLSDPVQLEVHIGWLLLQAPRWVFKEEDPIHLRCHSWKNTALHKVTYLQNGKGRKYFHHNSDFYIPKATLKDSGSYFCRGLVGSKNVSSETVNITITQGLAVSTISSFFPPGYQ

mFc-hNKG2D [4] = target: T3, mFc-hNKG2D (human, UniProt P26718 73-216); experiment: SPR Biacore 8K 37 C; mFc-hNKG2D captured on anti-mFc chip, TriNKET as analyte; 1:1 kinetic fit; control sample, n=2
T3 construct: extracellular domain; Made in house (Dragonfly Tx); the order of tag and ECD follows the name mFc-hNKG2D; also called mFc-tagged human NKG2D; not shown: mouse Fc tag
T3 sequence (looked up): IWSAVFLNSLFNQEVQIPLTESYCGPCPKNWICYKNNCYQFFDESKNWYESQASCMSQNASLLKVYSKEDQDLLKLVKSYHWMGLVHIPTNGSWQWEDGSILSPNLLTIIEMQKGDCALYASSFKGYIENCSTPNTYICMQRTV

mFc-hNKG2D [5] = target: T3, mFc-hNKG2D; experiment: SPR Biacore 8K 37 C; mFc-hNKG2D captured on anti-mFc chip, TriNKET as analyte; 1:1 kinetic fit; un-oxidized control
Protocol: Association was monitored for 60 seconds and dissociation was monitored for 60 seconds. Surfaces were regenerated between cycles with three pulses of 10 mM glycine-HCl, pH 1.7 injected for 20 seconds at 100 μL/min. HBS-EP+ (1×) buffer was used throughout the experiment. Data were analyzed using Biacore 8K Insight evaluation software (GE Healthcare).

Human CLEC12A-His [6] = target: T1, Human CLEC12A-His; experiment: SPR Biacore 8K 37 C; TriNKET captured on anti-hFc chip, hCLEC12A-His as analyte; 1:1 fit; after 0.02% H2O2 24 h, n=2
Protocol: Briefly, human Fc specific antibodies were covalently immobilized at a density ˜8000-10000 resonance units (RU) on carboxy methyl dextran matrix of a CM5 biosensor chip via amine-coupling chemistry to create an anti-hFc IgG chip. […] Association was monitored for 300 seconds and dissociation was monitored for 600 seconds. Surfaces were regenerated between cycles with three pulses of 10 mM glycine-HCl, pH 1.7 injected for 20 seconds at 100 μL/min. HBS-EP+ (1×) with 0.1 mg/mL BSA buffer was used throughout the experiment. Data were analyzed using Biacore 8K Insight evaluation software (GE Healthcare). The kinetic rate constants and overall affinity were obtained using 1:1 kinetic fit binding model (FIGS. 71A-71B).

Human CLEC12A-His [7] = target: T4, Human CLEC12A-His (human, UniProt Q5QGZ9 65-265); experiment: SPR; control sample (pH 5 stress study)
T4 construct: Recombinant soluble protein made in house; also called hCLEC12A-His; hCLEC12A; not shown: His tag
T4 sequence: T1 sequence

mFc-hNKG2D [8] = target: T5, mFc-hNKG2D (human, UniProt P26718 73-216); experiment: SPR, 37 C, mFc-hNKG2D captured, kinetic fit
T5 construct: extracellular domain; Recombinant mFc-tagged NKG2D dimer, made in house; also called human NKG2D; not shown: mouse Fc tag
T5 sequence (looked up): T3 sequence (looked up)

Human CD64 = target: T6, Human CD64 (human, UniProt P12314 16-288, biotinylated); experiment: SPR, human CD64 captured; average for AB0192
T6 construct: Bought recombinant receptor; also called hFcγRI; Human CD64 (FcγRI)
T6 sequence (P12314 16-288 limits assumed): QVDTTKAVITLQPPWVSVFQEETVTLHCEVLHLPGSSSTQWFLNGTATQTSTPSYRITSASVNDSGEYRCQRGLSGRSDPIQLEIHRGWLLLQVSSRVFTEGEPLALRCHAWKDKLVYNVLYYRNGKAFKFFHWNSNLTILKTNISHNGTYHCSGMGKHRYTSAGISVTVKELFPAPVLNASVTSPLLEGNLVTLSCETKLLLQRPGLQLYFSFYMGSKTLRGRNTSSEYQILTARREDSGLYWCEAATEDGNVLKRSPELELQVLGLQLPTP

[9] = target: T7, Human CD16a V158 (FcγRIIIa V158) (human, UniProt P08637 17-208, biotinylated); experiment: SPR 25C, average
T7 construct: Bought recombinant receptor; also called hCD16aV; hFcγRIIIa V158
T7 sequence (P08637 17-208 F176V limits assumed): as the sequence (P08637 17-208 F176V limits assumed) above
Protocol: Human and cynomolgus CD64, high and low affinity alleles of CD16a (V158 and F158, respectively), two alleles of CD32a (H131 and R131), CD16b, CD32b and cynomolgus CD16 were captured via biotin on a primed (according to the manufacturers instruction) Biacore chip. […] Due to irreversibility of streptavidin-biotin interaction, the capture step for all receptors except FcγRI (CD64) was performed just once prior to the start of the binding experiment. hCD64 and cyno CD64 capture on the CAP chip surface was performed during each cycle in accordance with the manufacturer's instructions for the Biotin CAPture kit.

[10] = target: T8, Human CLEC12A-His (recombinant, K244 WT) (human, UniProt Q5QGZ9 65-265); experiment: SPR, two-state fit; control sample
T8 construct: Made in house (Dragonfly Tx); also called hCLEC12A; hCLEC12A-His; not shown: His tag
T8 sequence: T1 sequence

[11] = target: T8, Human CLEC12A-His (recombinant, K244 WT); experiment: SPR, two-state fit (ka1); control sample
Protocol: (§1) Briefly, human Fc specific antibodies were covalently immobilized at a density ˜8000-10000 resonance units (RU) on carboxy methyl dextran matrix of a CM5 biosensor chip via amine-coupling chemistry to create an anti-hFc IgG chip. […] Association was monitored for 300 seconds and dissociation was monitored for 600 seconds. Surfaces were regenerated between cycles with three pulses of 10 mM glycine-HCl, pH 1.7 injected for 20 seconds at 100 μl/min. HBS-EP+ (1×) with 0.1 mg/ml BSA was used as running buffer throughout the experiment. Experiments were performed at physiological temperature of 37° C. To obtain kinetic rate constants and overall binding affinity, double-referenced data were fit to a two-state kinetic model using Biacore 8K Insight Evaluation software (Cytiva).

[12] = target: T8, Human CLEC12A-His (recombinant, K244 WT); experiment: SPR, two-state fit (ka1); control sample; remark: listed apart in the source
Protocol: as §1

[13] = target: T8, Human CLEC12A-His (recombinant, K244 WT); experiment: SPR 37C, AB0089 captured on anti-hFc, two-state fit
Protocol: as §1

[14] = target: T8, Human CLEC12A-His (recombinant, K244 WT); experiment: SPR, two-state fit (ka1); after 4 wks 40C in CST pH 7.0
Protocol: as §1

[15] = target: T9, human CLEC12A expressed on cells (human, UniProt Q5QGZ9 1-265); experiment: flow cytometry, hCLEC12A+ Ba/F3
T9 construct: Transduced isogenic cells or endogenous expression on AML cells; also called RMA-hCLEC12A; Ba/F3-hCLEC12A
T9 sequence: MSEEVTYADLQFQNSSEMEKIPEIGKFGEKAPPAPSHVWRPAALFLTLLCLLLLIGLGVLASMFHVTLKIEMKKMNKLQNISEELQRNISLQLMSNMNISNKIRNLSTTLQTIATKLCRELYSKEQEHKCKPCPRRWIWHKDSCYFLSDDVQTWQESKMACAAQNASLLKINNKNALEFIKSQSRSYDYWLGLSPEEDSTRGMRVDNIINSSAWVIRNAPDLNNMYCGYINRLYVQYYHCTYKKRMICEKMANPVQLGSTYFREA

B1: F3'-1602 TriNKET (bispecific antibody, human IgG1, kappa)
chain: QLQLQESGPGLVKPSETLSLTCTVSGFSLTNYGLHWIRQPPGKCLEWIGVIWSGGKTDYNPSLKSRVTISKDTSKNQFSLKLSSVQAADTAVYYCAKYDYDDSLDYWGQGTLVTVSSGGGGSGGGGSGGGGSGGGGSDIQMTQSPSSLSASVGDRVTITCHASQNINFWLSWYQQKPGKAPKLLIYEASNLHTGVPSRFSGSGSGTRFTLTISSLQPEDIATYYCQQSHSYPLTFGCGTKLEIKGSDKTHTCPPCPAPELLGGPSVFLFPPKPKDTLMISRTPEVTCVVVDVSHEDPEVKFNWYVDGVEVHNAKTKPREEQYNSTYRVVSVLTVLHQDWLNGKEYKCKVSNKALPAPIEKTISKAKGQPREPRVYTLPPCRDELTKNQVSLTCLVKGFYPSDIAVEWESNGQPENNYKTTPPVLVSDGSFTLYSKLTVDKSRWQQGNVFSCSVMHEALHNHYTQKSLSLSPG
heavy: EVQLVESGGGLVKPGGSLRLSCAASGFTFSSYSMNWVRQAPGKGLEWVSSISSSSSYIYYADSVKGRFTISRDNAKNSLYLQMNSLRAEDTAVYYCARGAPIGAAAGWFDPWGQGTLVTVSSASTKGPSVFPLAPSSKSTSGGTAALGCLVKDYFPEPVTVSWNSGALTSGVHTFPAVLQSSGLYSLSSVVTVPSSSLGTQTYICNVNHKPSNTKVDKKVEPKSCDKTHTCPPCPAPELLGGPSVFLFPPKPKDTLMISRTPEVTCVVVDVSHEDPEVKFNWYVDGVEVHNAKTKPREEQYNSTYRVVSVLTVLHQDWLNGKEYKCKVSNKALPAPIEKTISKAKGQPREPQVCTLPPSRDELTENQVSLTCLVKGFYPSDIAVEWESNGQPENNYKTTPPVLDSDGSFFLYSWLTVDKSRWQQGNVFSCSVMHEALHNHYTQKSLSLSPG
light: DIQMTQSPSSVSASVGDRVTITCRASQGISSWLAWYQQKPGKAPKLLIYAASSLQSGVPSRFSGSGSGTDFTLTISSLQPEDFATYYCQQGVSFPRTFGGGTKVEIKRTVAAPSVFIFPPSDEQLKSGTASVVCLLNNFYPREAKVQWKVDNALQSGNSQESVTEQDSKDSTYSLSSTLTLSKADYEKHKVYACEVTHQGLSSPVTKSFNRGEC
notes: Trispecific F3' format: CLEC12A scFv-Fc paired with NKG2D Fab-Fc; Stressed and control samples of the stability studies are the same molecule; also called AB0237
EC50 (nM), KHYG-1-CD16aV cytotoxicity assay, PL-21 cells (Human CLEC12A-His [1]): 0.12 nM | Kd (Human CLEC12A-His [2]): 0.638 nM | koff (Human CLEC12A-His [2]): 0.000433 s⁻¹ | kon (Human CLEC12A-His [2]): 678000 M⁻¹ s⁻¹ | Kd [3]: 212 nM | koff [3]: 0.024 s⁻¹ | kon [3]: 113000 M⁻¹ s⁻¹ | Kd (mFc-hNKG2D [4]): 790 nM | koff (mFc-hNKG2D [4]): 0.153 s⁻¹ | kon (mFc-hNKG2D [4]): 193000 M⁻¹ s⁻¹ | Kd (mFc-hNKG2D [5]): 750 nM | koff (mFc-hNKG2D [5]): 0.107 s⁻¹ | kon (mFc-hNKG2D [5]): 143000 M⁻¹ s⁻¹ | Kd (Human CLEC12A-His [6]): 1.1 nM | koff (Human CLEC12A-His [6]): 0.00087 s⁻¹ | kon (Human CLEC12A-His [6]): 806000 M⁻¹ s⁻¹

B2: AB0192 TriNKET (other)
chain: EVQLVESGGGVVQPGGSLRLSCAASGFTFNAFGMHWVRQAPGKCLEWVAFISSGSTSIYYANTVKGRFTISRDNSKNTLYLQMNSLRAEDTAVYYCARDGYPTGGAMDYWGQGTSVTVSSGGGGSGGGGSGGGGSGGGGSDIQMTQSPSSLSASVGDRVTITCKASQDIYNYLSWFQQKPGKAPKPLIYRANILVSGVPSRFSGSGSGQDYTFTISSLQPEDIATYYCLQFDAFPFTFGCGTKLEIKGSDKTHTCPPCPAPELLGGPSVFLFPPKPKDTLMISRTPEVTCVVVDVSHEDPEVKFNWYVDGVEVHNAKTKPREEQYNSTYRVVSVLTVLHQDWLNGKEYKCKVSNKALPAPIEKTISKAKGQPREPRVYTLPPCRDELTKNQVSLTCLVKGFYPSDIAVEWESNGQPENNYKTTPPVLVSDGSFTLYSKLTVDKSRWQQGNVFSCSVMHEALHNHYTQKSLSLSPG
heavy: B1 heavy
light: B1 light
notes: the condition stands under assay; also called AB0192 Lot AB0192-005
Kd (Human CLEC12A-His [7]): 1.68 nM | koff (Human CLEC12A-His [7]): 0.00129 s⁻¹ | kon (Human CLEC12A-His [7]): 771000 M⁻¹ s⁻¹ | Kd (mFc-hNKG2D [8]): 770 nM and 778 nM and 790 nM | Kd (Human CD64): 5.2 nM | koff (Human CD64): 0.00025 s⁻¹ | kon (Human CD64): 48000 M⁻¹ s⁻¹

B3: AB0089 TriNKET (bispecific antibody, human IgG1, kappa)
chain: B1 chain with S53V, K56A, K71V, Y98G, D101G, S103T, R207D, I220F
heavy: B1 heavy
light: B1 light
notes: F3' format heterodimer of three chains; human IgG1 Fc with EW-RVT and Y349C/S354C mutations; also called AB0089 Lot AB0089-002; CLEC12A TriNKET AB0089
Kd [9]: 333 nM | koff [9]: 0.0277 s⁻¹ | kon [9]: 83100 M⁻¹ s⁻¹ | Kd [10]: 1 nM | kon [11]: 8.87e+06 M⁻¹ s⁻¹ | kon [12]: 1.01e+07 M⁻¹ s⁻¹ | Kd [13]: 0.69 nM and 0.75 nM and 0.78 nM | kon [14]: 6.31e+06 M⁻¹ s⁻¹

B4: F3'-1602 TriNKET (other)
chain: B1 chain
heavy: B1 heavy
light: B1 light
notes: CLEC12A scFv-Fc, NKG2D A49MI Fab-Fc, human IgG1 Fc; also called AB0237
fold lower EC50 than F3'-1295 [15]: ~2 fold
